Consider two molecules from patent publication US20210032365A1 (Chugai, published 2021).

For test [1], the target named is T1, human C1s (human, UniProt P09871 16-688).
T1 construct: also called hC1s; serum-derived human C1s (CompTech)
T1 sequence: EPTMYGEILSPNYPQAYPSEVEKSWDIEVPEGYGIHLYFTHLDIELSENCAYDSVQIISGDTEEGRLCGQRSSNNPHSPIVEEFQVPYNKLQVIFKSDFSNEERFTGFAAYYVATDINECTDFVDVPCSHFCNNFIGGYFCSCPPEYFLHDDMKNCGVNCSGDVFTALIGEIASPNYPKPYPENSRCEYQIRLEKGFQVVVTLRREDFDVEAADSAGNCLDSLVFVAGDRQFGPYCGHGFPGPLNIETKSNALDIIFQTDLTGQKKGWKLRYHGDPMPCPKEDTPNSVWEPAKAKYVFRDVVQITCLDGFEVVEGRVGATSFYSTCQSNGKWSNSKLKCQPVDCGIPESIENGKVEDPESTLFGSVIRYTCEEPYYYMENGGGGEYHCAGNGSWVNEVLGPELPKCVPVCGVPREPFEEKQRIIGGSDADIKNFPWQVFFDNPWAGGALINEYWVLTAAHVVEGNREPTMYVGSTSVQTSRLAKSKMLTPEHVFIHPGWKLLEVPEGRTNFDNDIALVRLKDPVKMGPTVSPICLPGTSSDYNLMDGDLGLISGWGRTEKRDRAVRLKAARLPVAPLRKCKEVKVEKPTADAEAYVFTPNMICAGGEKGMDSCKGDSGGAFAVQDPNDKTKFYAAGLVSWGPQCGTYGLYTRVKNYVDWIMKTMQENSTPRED
Kind of test: SPR; KD pH 5.8 1.2 mM Ca / KD pH 7.4 1.2 mM Ca. The procedure: (§1) All variants were transiently expressed and purified by the method described above. The binding affinity of each histidine-substituted variant at pH 7.4 and pH 5.8 was determined at 37 degrees C. using Biacore T200 instrument (GE Healthcare). Recombinant Protein A/G (Pierce) was immobilized onto all flow cells of a CM4 sensor chip using an amine coupling kit (GE Healthcare). Antibodies and analytes were prepared in 7(+) buffer (20 mM ACES, 150 mM NaCl, 1.2 mM CaCl2, 0.05% Tween 20, 0.005% NaN3, pH 7.4), 5(+) buffer (20 mM ACES, 150 mM NaCl, 1.2 mM CaCl2, 0.05% Tween 20, 0.005% NaN3, pH 5.8), or 5(−) buffer (20 mM ACES, 150 mM NaCl, 3 micro M CaCl2, 0.05% Tween 20, 0.005% NaN3, pH 5.8). Each antibody was captured onto the sensor surface by protein A/G. Antibody capture levels were aimed at 200 resonance unit (RU). Serum-derived human C1s (CompTech) or recombinant C1s prepared in EXAMPLE 1 was injected at 50 nM, followed by dissociation. The sensor surface was regenerated in each cycle with 10 mM Glycine-HCl, pH 1.5. […] The ratio of KD 5.8+ to KD 7.4+(“KD 5+/7+”) and that of KD 5.8− to KD 7.4+(“KD 5−/7+”) were calculated. When the KD 5+/7+ or KD 5−/7+ of a variant is larger than that of the parent antibody IPN009VH2-SG4GK/IPN009VK3-SK1, that variant is considered to be “pH”- or “pH and Ca”-dependent, respectively. When binding response in 5(+) buffer and/or in 5(−) buffer of a variant is much lower than that of IPN09VH2/IPN009VK3, that variant is also considered as “pH”- and/or “pH and Ca”-dependent. Therefore, such mutations are effective to generate “pH”- and/or “pH and Ca”-dependent antibody. To further enhance “pH” and/or “pH and Ca” dependency, a combination of histidine mutations was conducted. Antibodies with combinations of histidine mutations were evaluated using Biacore by the method described above.
In general terms: SPR reads the build-up and loss of mass on a sensor chip optically.

The target in test [2] is T1, human C1s. Kind of test: SPR, Ab captured; pH 7.4, 1.2 mM Ca. The gist of the method:
(§2)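 KD values come from SPR at 37 °C with antibody held on immobilized protein A/G and 50 nM human C1s as analyte. Buffers differed only in pH (7.4 or 5.8) and CaCl2 (1.2 mM or 3 µM). Each pH 5.8 KD was divided by the pH 7.4, 1.2 mM Ca KD.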

The target in test [3] is T1, human C1s. Briefly: SPR, Ab captured; pH 5.8, 3 uM Ca. On the procedure: as §1
In test [4] the target is T1, human C1s. Kind of test: SPR; KD pH 5.8 3 uM Ca / KD pH 7.4 1.2 mM Ca. The procedure:
as §1

In test [5] the target is T1, human C1s. Briefly: SPR, Ab captured; pH 7.4, 1.2 mM Ca. The procedure:
as §1
This is another data set of the same source.

Test [6] addresses T1, human C1s. Briefly: SPR, Ab captured; pH 5.8, 3 uM Ca. The method in brief:
as §2
This is another data set of the same source.

Test [7] concerns the target T1, human C1s. Briefly: SPR, Ab captured; pH 5.8, 1.2 mM Ca. On the procedure:
as §1

For test [8], the target named is T1, human C1s. Briefly: SPR; KD pH 5.8 1.2 mM Ca / KD pH 7.4 1.2 mM Ca. The method in brief:
as §2
This is another data set of the same source.

In test [9] the target is T1, human C1s. Kind of test: SPR; KD pH 5.8 3 uM Ca / KD pH 7.4 1.2 mM Ca. The gist of the method:
as §2
This is another data set of the same source.

Test [10] has as its target T1, human C1s. Briefly: SPR, Ab captured; pH 7.4, 1.2 mM Ca. The gist of the method: (§3)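 Antibody captured on protein A/G (~200 RU) on Biacore T200 at 37C; serum-derived or recombinant human C1s injected at 50 nM, then dissociation. KD measured at pH 7.4 with 1.2 mM Ca and at pH 5.8 with 1.2 mM or 3 uM Ca; KD ratios pH 5.8/pH 7.4 calculated.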
This is another data set of the same source.

For test [11], the target named is T1, human C1s. Briefly: SPR, Ab captured; pH 5.8, 1.2 mM Ca. The gist of the method: as §2
The source holds these as a separate data set.

In test [12] the target is T2, human C1s (human, UniProt P09871 16-688).
T2 construct: Analyte in the Biacore assays; also called hC1s; serum-derived human C1s (CompTech)
T2 sequence: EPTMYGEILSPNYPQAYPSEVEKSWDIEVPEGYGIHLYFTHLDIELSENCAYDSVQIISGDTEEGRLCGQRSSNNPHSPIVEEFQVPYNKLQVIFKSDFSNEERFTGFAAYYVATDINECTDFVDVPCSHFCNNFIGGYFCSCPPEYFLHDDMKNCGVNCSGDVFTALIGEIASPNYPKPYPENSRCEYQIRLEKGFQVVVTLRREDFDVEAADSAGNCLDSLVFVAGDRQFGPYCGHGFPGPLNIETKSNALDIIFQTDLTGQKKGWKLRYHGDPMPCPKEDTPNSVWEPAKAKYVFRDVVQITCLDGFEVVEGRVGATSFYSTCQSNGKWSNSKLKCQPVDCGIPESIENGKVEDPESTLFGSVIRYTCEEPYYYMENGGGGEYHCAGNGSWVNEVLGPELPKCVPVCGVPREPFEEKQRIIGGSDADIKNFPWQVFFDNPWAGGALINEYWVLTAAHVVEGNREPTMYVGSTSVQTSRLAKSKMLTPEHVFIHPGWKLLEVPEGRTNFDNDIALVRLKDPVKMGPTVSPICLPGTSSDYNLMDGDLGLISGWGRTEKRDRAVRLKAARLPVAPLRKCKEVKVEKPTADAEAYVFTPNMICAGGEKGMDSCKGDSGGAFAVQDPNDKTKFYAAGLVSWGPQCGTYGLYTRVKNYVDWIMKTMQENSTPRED
Briefly: SPR (Biacore T200, 37C), Ab captured on protein A/G; pH 5.8, 1.2 mM Ca. The method in brief: as §3

Test [13] addresses T2, human C1s. Kind of test: SPR (Biacore T200, 37C), Ab captured on protein A/G; pH 7.4, 1.2 mM Ca. The procedure:
as §1

The target of test [14] is T2, human C1s. Kind of test: SPR (Biacore T200, 37C), Ab captured on protein A/G; pH 5.8, 1.2 mM Ca. On the procedure: as §1
The source holds these as a separate data set.

The target of test [15] is T2, human C1s. Briefly: SPR (Biacore T200, 37C), Ab captured on protein A/G; pH 5.8, 3 uM Ca. On the procedure: as §1
Test [16] concerns the target T2, human C1s. The test is described as above. The gist of the method: as §3
The source holds these as a separate data set.

The target of test [17] is T2, human C1s. Briefly: SPR; KD at pH 5.8 (3 uM Ca) over KD at pH 7.4 (1.2 mM Ca). The method in brief: as §3
For test [18], the target named is T2, human C1s. Kind of test: SPR; KD at pH 5.8 (1.2 mM Ca) over KD at pH 7.4 (1.2 mM Ca). The gist of the method:
as §3

The target in test [19] is T2, human C1s. The test is described as above. On the procedure: as §1
This is another data set of the same source.

For test [20], the target named is T2, human C1s. Kind of test: SPR; KD at pH 5.8 (3 uM Ca) over KD at pH 7.4 (1.2 mM Ca). The procedure:
as §1
This is another data set of the same source.

B1: C1_IPN009VH2-SG4GK/IPN009VK3-SK1 (antibody, human IgG4 S228P, kappa)
heavy: not shown
light: QIVLTQSPATLSLSPGERATLSCTASSSVSSSYLHWYQQKPGKAPKLWIYSTSNLASGVPSRFSGSGSGTDYTLTISSLQPEDFATYYCHQYYRLPPITFGQGTKLEIKRTVAAPSVFIFPPSDEQLKSGTASVVCLLNNFYPREAKVQWKVDNALQSGNSQESVTEQDSKDSTYSLSSTLTLSKADYEKHKVYACEVTHQGLSSPVTKSFNRGEC
notes: parent antibody; variable regions as described in WO2016164358; also called IPN009VH2/IPN009VK3; IPN09VH2/IPN09VK3
For orientation: koff means a measure of how fast the partners let go of each other. As a reminder, the kon is the rate constant with which the complex forms. For the molecule B1, the “KD 5(+)/7(+)” value with human C1s [1] and with human C1s [8] was 0.2 in each case. The koff with human C1s [2] came out at 0.000298 s⁻¹; with human C1s [3] it was 0.00204 s⁻¹; with human C1s [5], 0.000298 s⁻¹; in the test with human C1s [6] it was 0.00204 s⁻¹; with human C1s [7] it was 0.000108 s⁻¹; with human C1s [10], 0.000298 s⁻¹. Also, the koff in the test with human C1s [11] stood at 0.000108 s⁻¹. In addition, the kon is 362000 M⁻¹ s⁻¹ with human C1s [2]; 606000 M⁻¹ s⁻¹ with human C1s [3]; 362000 M⁻¹ s⁻¹ with human C1s [5]; 606000 M⁻¹ s⁻¹ with human C1s [6]; 662000 M⁻¹ s⁻¹ with human C1s [7]; 362000 M⁻¹ s⁻¹ with human C1s [10]. For the same molecule, the on-rate constant (kon) in the test with human C1s [11] is 662000 M⁻¹ s⁻¹. The “KD 5(-)/7(+)” value in the test with human C1s [4] and with human C1s [9] was 4.1 each time.

B2: C1_IPN009VH2-SG4GK/IPN009VK3-SK1 (antibody, human IgG4 S228P, kappa)
heavy: not shown
light: QIVLTQSPATLSLSPGERATLSCTASSSVSSSYLHWYQQKPGKAPKLWIYSTSNLASGVPSRFSGSGSGTDYTLTISSLQPEDFATYYCHQYYRLPPITFGQGTKLEIKRTVAAPSVFIFPPSDEQLKSGTASVVCLLNNFYPREAKVQWKVDNALQSGNSQESVTEQDSKDSTYSLSSTLTLSKADYEKHKVYACEVTHQGLSSPVTKSFNRGEC
notes: Parent antibody; also called IPN009VH2/IPN009VK3; IPN09VH2/IPN09VK3
Consider B2, for which the dissociation rate constant (koff) was found to be 0.000108 s⁻¹ with human C1s [12]; 0.000298 s⁻¹ in the test with human C1s [13]; 0.000108 s⁻¹ in the test with human C1s [14]; 0.00204 s⁻¹ with human C1s [15]; 0.00204 s⁻¹ with human C1s [16]. Moreover, the on-rate (kon) with human C1s [12] turned out to be 662000 M⁻¹ s⁻¹; with human C1s [13], 362000 M⁻¹ s⁻¹; in the test with human C1s [14] it was 662000 M⁻¹ s⁻¹; in the test with human C1s [15] it was 605000 M⁻¹ s⁻¹; in the test with human C1s [16], 606000 M⁻¹ s⁻¹. The “KD 5(-)/7(+)” value in the test with human C1s [17] and in the test with human C1s [20] was 4.09 each time. Besides, the “KD 5(+)/7(+)” value with human C1s [18] and in the test with human C1s [19] was 0.2 each time.
